{
  "source": "paper PMC12596195",
  "about": "“Mei5–Sae3 stabilizes both active and inactive forms of Dmc1 filaments independently of its impact on ATP hydrolysis” (Nucleic Acids Research, 2025)",
  "key": {"Dmc1-WT [1]": {"target": "T1, Dmc1-WT (Saccharomyces cerevisiae, UniProt P25453 1-334)", "T1 sequence": "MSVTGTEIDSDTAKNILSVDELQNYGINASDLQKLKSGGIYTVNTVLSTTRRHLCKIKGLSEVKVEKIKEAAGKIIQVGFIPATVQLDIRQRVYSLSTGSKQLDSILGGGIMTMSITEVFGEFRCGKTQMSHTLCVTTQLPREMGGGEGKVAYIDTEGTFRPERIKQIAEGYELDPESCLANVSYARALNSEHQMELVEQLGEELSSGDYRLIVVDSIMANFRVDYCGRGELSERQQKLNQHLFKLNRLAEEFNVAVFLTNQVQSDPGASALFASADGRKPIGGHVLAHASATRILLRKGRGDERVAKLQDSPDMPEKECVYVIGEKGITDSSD", "assay": "fluorescence polarization; ATP, 0 Ca2+; FP: 25 mM HEPES pH 7.5, 1 mM Mg2+, 1 mM ATP, 1 mM DTT, 50 mM NaCl (100 mM in Fig. 3), 100 ug/ml BSA, 0.02% NP-40, 70 uM Ca2+ or as indicated, 3 nM 84-nt ssDNA", "details": "protein: recombinant; tags: N-terminal 6xHis; label: 5' Alexa Fluor 488"}, "RecA;Mei5-Sae3": {"target": "RecA;Mei5-Sae3 (Escherichia coli;Saccharomyces …, UniProt P0A7G6;P32489;P89114 1-353;1-222;1-91, |)", "sequence (P0A7G6 whole entry, one chain of several)": "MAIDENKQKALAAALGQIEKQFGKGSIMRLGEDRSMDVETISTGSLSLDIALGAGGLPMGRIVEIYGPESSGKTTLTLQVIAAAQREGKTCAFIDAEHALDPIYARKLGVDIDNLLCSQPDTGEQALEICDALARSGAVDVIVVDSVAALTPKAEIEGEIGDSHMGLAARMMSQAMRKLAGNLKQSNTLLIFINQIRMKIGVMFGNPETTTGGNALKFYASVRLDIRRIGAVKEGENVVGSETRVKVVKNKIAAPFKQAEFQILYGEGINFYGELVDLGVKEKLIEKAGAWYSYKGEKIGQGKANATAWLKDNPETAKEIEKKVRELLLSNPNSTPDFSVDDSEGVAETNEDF", "assay": "fluorescence polarization; 400 nM Mei5-Sae3: no impact on Kd; FP: 25 mM HEPES pH 7.5, 1 mM Mg2+, 1 mM ATP, 1 mM DTT, 50 mM NaCl (100 mM in Fig. 3), 100 ug/ml BSA, 0.02% NP-40, 70 uM Ca2+ or as indicated, 3 nM 84-nt ssDNA", "details": "protein: ;recombinant; tags: ;N-terminal 6xHis on Mei5; label: 5' Alexa Fluor 488"}, "Mei5-Sae3": {"target": "T2, Mei5-Sae3 (Saccharomyces cerevisiae, UniProt P32489;P89114 1-222;1-91)", "T2 sequence 1": "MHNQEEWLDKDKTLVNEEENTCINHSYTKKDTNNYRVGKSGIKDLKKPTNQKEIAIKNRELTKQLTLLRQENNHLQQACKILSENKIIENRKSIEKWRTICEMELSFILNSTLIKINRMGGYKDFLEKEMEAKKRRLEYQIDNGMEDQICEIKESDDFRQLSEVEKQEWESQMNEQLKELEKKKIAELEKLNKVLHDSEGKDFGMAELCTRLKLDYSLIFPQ", "T2 sequence 2": "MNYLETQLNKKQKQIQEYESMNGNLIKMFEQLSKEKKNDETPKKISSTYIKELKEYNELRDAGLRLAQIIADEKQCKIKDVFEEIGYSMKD", "assay": "fluorescence polarization; titration; very low signal at 400 nM; FP: 25 mM HEPES pH 7.5, 1 mM Mg2+, 1 mM ATP, 1 mM DTT, 50 mM NaCl (100 mM in Fig. 3), 100 ug/ml BSA, 0.02% NP-40, 70 uM Ca2+ or as indicated, 3 nM 84-nt ssDNA", "details": "protein: recombinant; tags: N-terminal 6xHis on Mei5; copies: 1;1; label: 5' Alexa Fluor 488"}, "Dmc1-WT;Mei5-Sae3 [2]": {"target": "T3, Dmc1-WT;Mei5-Sae3 (Saccharomyces cerevisiae;Saccharomyces …, UniProt P25453;P32489;P89114 1-334;1-222;1-91, |)", "T3 sequence 1": "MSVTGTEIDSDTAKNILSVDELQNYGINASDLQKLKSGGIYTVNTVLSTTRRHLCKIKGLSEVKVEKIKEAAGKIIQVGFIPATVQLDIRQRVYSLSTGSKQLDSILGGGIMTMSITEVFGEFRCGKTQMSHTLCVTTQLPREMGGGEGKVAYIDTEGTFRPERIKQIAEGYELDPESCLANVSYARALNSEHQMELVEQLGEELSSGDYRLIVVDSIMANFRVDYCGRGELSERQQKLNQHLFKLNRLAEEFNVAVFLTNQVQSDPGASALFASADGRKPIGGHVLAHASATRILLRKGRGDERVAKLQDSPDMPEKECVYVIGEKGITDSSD", "T3 sequence 2": "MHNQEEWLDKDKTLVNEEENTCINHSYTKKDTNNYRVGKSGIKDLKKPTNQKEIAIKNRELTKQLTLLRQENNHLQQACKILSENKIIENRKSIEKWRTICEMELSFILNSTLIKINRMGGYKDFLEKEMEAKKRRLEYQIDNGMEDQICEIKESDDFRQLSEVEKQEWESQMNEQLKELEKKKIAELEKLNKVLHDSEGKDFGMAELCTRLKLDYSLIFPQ", "T3 sequence 3": "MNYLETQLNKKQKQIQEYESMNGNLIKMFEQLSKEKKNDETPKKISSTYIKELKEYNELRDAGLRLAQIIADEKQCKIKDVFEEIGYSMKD", "assay": "fluorescence polarization; ATP, 70 uM Ca2+, Mei5-Sae3 (400 nM, no own signal); FP: 25 mM HEPES pH 7.5, 1 mM Mg2+, 1 mM ATP, 1 mM DTT, 50 mM NaCl (100 mM in Fig. 3), 100 ug/ml BSA, 0.02% NP-40, 70 uM Ca2+ or as indicated, 3 nM 84-nt ssDNA", "details": "protein: recombinant;recombinant; tags: N-terminal 6xHis;N-terminal 6xHis on Mei5; label: 5' Alexa Fluor 488"}, "Dmc1-WT;Mei5-Sae3 [3]": {"target": "T3, Dmc1-WT;Mei5-Sae3", "assay": "fluorescence polarization; ADP, 400 nM Mei5-Sae3; FP: 25 mM HEPES pH 7.5, 1 mM Mg2+, 1 mM ATP, 1 mM DTT, 50 mM NaCl (100 mM in Fig. 3), 100 ug/ml BSA, 0.02% NP-40, 70 uM Ca2+ or as indicated, 3 nM 84-nt ssDNA", "details": "protein: recombinant;recombinant; tags: N-terminal 6xHis;N-terminal 6xHis on Mei5; label: 5' Alexa Fluor 488"}, "Dmc1-WT [4]": {"target": "T1, Dmc1-WT", "assay": "fluorescence polarization; ATP, 250 uM Ca2+; FP: 25 mM HEPES pH 7.5, 1 mM Mg2+, 1 mM ATP, 1 mM DTT, 50 mM NaCl (100 mM in Fig. 3), 100 ug/ml BSA, 0.02% NP-40, 70 uM Ca2+ or as indicated, 3 nM 84-nt ssDNA", "details": "protein: recombinant; tags: N-terminal 6xHis; label: 5' Alexa Fluor 488"}, "Dmc1-WT [5]": {"target": "T1, Dmc1-WT", "assay": "fluorescence polarization; ATP, 1 mM Ca2+; FP: 25 mM HEPES pH 7.5, 1 mM Mg2+, 1 mM ATP, 1 mM DTT, 50 mM NaCl (100 mM in Fig. 3), 100 ug/ml BSA, 0.02% NP-40, 70 uM Ca2+ or as indicated, 3 nM 84-nt ssDNA", "details": "protein: recombinant; tags: N-terminal 6xHis; label: 5' Alexa Fluor 488"}, "hRad51 [6]": {"target": "T4, hRad51 (Homo sapiens, UniProt Q06609 1-339)", "T4 sequence (Q06609 whole entry)": "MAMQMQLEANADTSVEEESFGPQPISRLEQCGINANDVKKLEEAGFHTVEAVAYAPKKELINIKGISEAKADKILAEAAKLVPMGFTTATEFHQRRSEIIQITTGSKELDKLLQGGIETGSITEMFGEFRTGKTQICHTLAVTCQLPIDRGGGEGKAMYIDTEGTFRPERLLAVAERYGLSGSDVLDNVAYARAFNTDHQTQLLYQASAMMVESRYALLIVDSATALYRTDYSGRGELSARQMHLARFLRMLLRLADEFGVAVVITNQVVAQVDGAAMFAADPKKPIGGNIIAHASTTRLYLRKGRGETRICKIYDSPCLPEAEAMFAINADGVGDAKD", "assay": "fluorescence polarization; ATP; FP: 25 mM HEPES pH 7.5, 1 mM Mg2+, 1 mM ATP, 1 mM DTT, 50 mM NaCl (100 mM in Fig. 3), 100 ug/ml BSA, 0.02% NP-40, 70 uM Ca2+ or as indicated, 3 nM 84-nt ssDNA", "details": "chain copies: 28; label: 5' Alexa Fluor 488"}, "Dmc1-WT;Mei5-Sae3 [7]": {"target": "T3, Dmc1-WT;Mei5-Sae3", "assay": "fluorescence polarization; AMP-PNP, 400 nM Mei5-Sae3; FP: 25 mM HEPES pH 7.5, 1 mM Mg2+, 1 mM ATP, 1 mM DTT, 50 mM NaCl (100 mM in Fig. 3), 100 ug/ml BSA, 0.02% NP-40, 70 uM Ca2+ or as indicated, 3 nM 84-nt ssDNA", "details": "protein: recombinant;recombinant; tags: N-terminal 6xHis;N-terminal 6xHis on Mei5; label: 5' Alexa Fluor 488"}, "hRad51 [8]": {"target": "T4, hRad51", "assay": "fluorescence polarization; ADP; FP: 25 mM HEPES pH 7.5, 1 mM Mg2+, 1 mM ATP, 1 mM DTT, 50 mM NaCl (100 mM in Fig. 3), 100 ug/ml BSA, 0.02% NP-40, 70 uM Ca2+ or as indicated, 3 nM 84-nt ssDNA", "details": "chain copies: 28; label: 5' Alexa Fluor 488"}, "RecA": {"target": "RecA (Escherichia coli, UniProt P0A7G6 1-353)", "sequence (P0A7G6 whole entry)": "as the sequence (P0A7G6 whole entry, one chain of several) above", "assay": "fluorescence polarization; 100 mM NaCl (90% of binding remains); FP: 25 mM HEPES pH 7.5, 1 mM Mg2+, 1 mM ATP, 1 mM DTT, 50 mM NaCl (100 mM in Fig. 3), 100 ug/ml BSA, 0.02% NP-40, 70 uM Ca2+ or as indicated, 3 nM 84-nt ssDNA", "details": "label: 5' Alexa Fluor 488"}, "Dmc1-WT [9]": {"target": "T1, Dmc1-WT", "assay": "fluorescence polarization; ATP, 70 uM Ca2+; FP: 25 mM HEPES pH 7.5, 1 mM Mg2+, 1 mM ATP, 1 mM DTT, 50 mM NaCl (100 mM in Fig. 3), 100 ug/ml BSA, 0.02% NP-40, 70 uM Ca2+ or as indicated, 3 nM 84-nt ssDNA", "details": "protein: recombinant; tags: N-terminal 6xHis; label: 5' Alexa Fluor 488"}, "Dmc1-E157D": {"target": "T5, Dmc1-E157D (Saccharomyces cerevisiae, UniProt P25453 1-334, E157D)", "T5 sequence": "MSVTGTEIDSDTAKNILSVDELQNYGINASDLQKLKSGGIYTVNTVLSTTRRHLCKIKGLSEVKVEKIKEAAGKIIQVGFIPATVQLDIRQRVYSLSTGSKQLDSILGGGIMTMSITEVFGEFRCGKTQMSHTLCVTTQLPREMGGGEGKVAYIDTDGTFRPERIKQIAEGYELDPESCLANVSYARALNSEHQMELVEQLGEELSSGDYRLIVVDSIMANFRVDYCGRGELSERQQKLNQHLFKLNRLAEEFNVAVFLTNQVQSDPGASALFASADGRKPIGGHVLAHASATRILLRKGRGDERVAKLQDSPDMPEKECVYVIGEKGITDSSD", "assay": "fluorescence polarization; ATP, 70 uM Ca2+, 50 mM NaCl, 30 C; comparable to WT; FP: 25 mM HEPES pH 7.5, 1 mM Mg2+, 1 mM ATP, 1 mM DTT, 50 mM NaCl (100 mM in Fig. 3), 100 ug/ml BSA, 0.02% NP-40, 70 uM Ca2+ or as indicated, 3 nM 84-nt ssDNA", "details": "protein: recombinant; tags: N-terminal 6xHis; label: 5' Alexa Fluor 488"}},
  "note": "Where “and” joins values, the source holds several entries; their conditions need not be identical. Equal values may be shown once.",
  "data": [
    {"binder": "84 nt-ssDNA (ssDNA) DNA: GGTAGCGGTTGGGTGAGTGGTGGGGAGGGTCGGGAGGTGGCGTAGAAACATGATAGGAATGTGAATGAATGAAGTACAAGTAAA", "values": [
      {"measurement": "Kd", "setting": "Dmc1-WT [1]", "result": "1.34 ± 0.113", "unit": "µM"},
      {"measurement": "binding result", "setting": "RecA;Mei5-Sae3", "result": "binds"},
      {"measurement": "binding result", "setting": "Mei5-Sae3", "result": "binds"},
      {"measurement": "Kd", "setting": "Dmc1-WT;Mei5-Sae3 [2]", "result": "0.512 ± 0.025", "unit": "µM"},
      {"measurement": "fold decrease in Kd vs Dmc1 alone", "setting": "Dmc1-WT;Mei5-Sae3 [3]", "result": "~1.5 fold lower Kd than Dmc1 alone"},
      {"measurement": "Kd", "setting": "Dmc1-WT [4]", "result": "0.472 µM and 0.508 µM"},
      {"measurement": "Kd", "setting": "Dmc1-WT [5]", "result": "0.164 ± 0.013", "unit": "µM"},
      {"measurement": "Kd", "setting": "hRad51 [6]", "result": "0.342 ± 0.01", "unit": "µM"},
      {"measurement": "fold decrease in Kd", "setting": "Dmc1-WT;Mei5-Sae3 [7]", "result": "~1.5 fold lower Kd than Dmc1 alone"},
      {"measurement": "Kd", "setting": "hRad51 [8]", "result": "0.476 ± 0.02", "unit": "µM"},
      {"measurement": "binding result", "setting": "RecA", "result": "binds"},
      {"measurement": "Kd", "setting": "Dmc1-WT [9]", "result": "0.966 µM and 0.933 µM"},
      {"measurement": "binding result", "setting": "Dmc1-E157D", "result": "binds"}
    ]}
  ]
}
